Test results published in article PMC5700522.

Molecular target: T1, PoxCxrA17-150 (Penicillium oxalicum HP7-1) (UniProt A0A2H4WV05)
T1 sequence: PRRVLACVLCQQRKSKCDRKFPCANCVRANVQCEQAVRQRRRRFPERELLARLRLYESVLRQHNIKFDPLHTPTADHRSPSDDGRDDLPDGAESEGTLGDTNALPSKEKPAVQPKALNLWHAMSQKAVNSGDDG
Assay: EMSA
Conditions: 20 mM Tris-HCl pH 8.0, 50 mM KCl, 5% glycerol, 1 mM DTT, 0.1 mg/mL BSA; 40 ng FAM probe, 0-4.8 ug protein; 4% PAGE in TAE; temperature not stated

| Sequence | binding |
| --- | --- |
| CGGCTTCCAAAGACCCCATATCGACGATCGGCGATTTGGGGAGGGACTAAAGTAGGAGGGAGAGGGAGGGAGCAGAGAGGGAGGGAGCAGAGAGAGAGGGAGAGAGGGAGAGCAAGGGTGAATAACAAGAAAGCGACGATGACAAGGTTGGTAAGATAAC (double strand) [PoxNsdD promoter (CxrA probe)] | binds |
| GTGAAAGAGGTGCTTGTCGTGATCGCTTGCCATATGTTTCACTGTATGACTTGGGCACCGGAGCGGCACCGTGAATCAGGCTGGCCAAATCCATTGTCGGACTAGATGCTTCGTCCGTTGGGATCGTTGAATTGTGCGGAATCAGTGTCGTCGAGTGATACAATTGGGACGTGAGATTTAGTCACGACCGATAAGGTG (double strand) [PoxCxrB promoter (CxrA probe)] | binds |
| TTAGGAGTGCTATAAGATGGCGACAGAAGTCGGCCGAGGAGGAAATTCTCGTTTCCATCCACCGAGTCTGCATACATTGGATTTCGAGTTGTCAAAATGAGATACGATTTGATTCTTGCCGCCGGCGCCACTCTGGCACTGGCCGTGCCCCAGGGCATCTCCAAGCGGGCCGGAGGCTTTGTCTGTAAGTTG (double strand) [POX01166/Cel5B promoter (CxrA probe)] | binds |
